Experimental data published in the supplement of paper PMC10567573.

B1: INTS3 (parent)
chain: YPPLEGHVRQGVFSSLNHIVEKRV

Variants of: B1
Test: protein stability index of a GFP-peptide fusion (GPS, HEK-293T) (PSI 1-6); higher = more stable
Settings: c terminus: a fixed tail appended
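Also: lentivirally expressed fusions sorted by FACS into six bins by GFP to DsRed ratio, PSI derived from sequencing read proportions per bin multiplied by bin number.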

Row | Variant | protein stability index
1 | YPPLEGHVRQGVFESLNHIVEKRV | 2.73
2 | YPPLEGHVRQGVFVSLNHIVEKRV | 2.29
3 | YPPLEGHVRQGVFTSLNHIVEKRV | 2.56
4 | YPPLEGHVRQGVFGSLNHIVEKRV | 2.61
5 | YPPLEGHVRQGVFNSLNHIVEKRV | 2.41
6 | YPPLEGHVRQGVFHSLNHIVEKRV | 2.63
7 | YPPLEGHVRQGVFFSLNHIVEKRV | 1.79
8 | YPPLEGHVRQGVFCSLNHIVEKRV | 1.5
9 | YPPLEGHVRQGVFRSLNHIVEKRV | 3.27
10 | YPPLEGHVRQGVFASLNHIVEKRV | 2.75
11 | YPPLEGHVRQGVFYSLNHIVEKRV | 1.66
12 | YPPLEGHVRQGVFPSLNHIVEKRV | 2.22
13 | YPPLEGHVRQGVFQSLNHIVEKRV | 3.01
14 | YPPLEGHVRQGVFLSLNHIVEKRV | 1.73
15 | YPPLEGHVRQGVFKSLNHIVEKRV | 2.6
16 | YPPLEGHVRQGVFDSLNHIVEKRV | 3.52
17 | YPPLEGHVRQGVFMSLNHIVEKRV | 2.07
18 | YPPLEGHVRQGVGSSLNHIVEKRV | 3.33
19 | YPPLEGHVRQGVCSSLNHIVEKRV | 2.98
20 | YPPLEGHVRQGVHSSLNHIVEKRV | 4.25
21 | YPPLEGHVRQGVRSSLNHIVEKRV | 3.32
22 | YPPLEGHVRQGVLSSLNHIVEKRV | 3.77
23 | YPPLEGHVRQGVQSSLNHIVEKRV | 3.16
24 | YPPLEGHVRQGVTSSLNHIVEKRV | 2.98

Row | Variant | protein stability index
25 | YPPLEGHVRQGVMSSLNHIVEKRV | 3.36
26 | YPPLEGHVRQGVWSSLNHIVEKRV | 2.4
27 | YPPLEGHVRQGVVSSLNHIVEKRV | 3.7
28 | YPPLEGHVRQGVASSLNHIVEKRV | 3.55
29 | YPPLEGHVRQGVYSSLNHIVEKRV | 2.84
30 | YPPLEGHVRQGVNSSLNHIVEKRV | 3.46
31 | YPPLEGHVRQGVDSSLNHIVEKRV | 4.31
32 | YPPLEGHVRQGVISSLNHIVEKRV | 3.6
33 | YPPLEGHVRQGVKSSLNHIVEKRV | 3.16
34 | YPPLEGHVRQGVESSLNHIVEKRV | 3.99
35 | YPPLEGHVRQGVSSSLNHIVEKRV | 3.65
36 | YPPLEGHVRQGVFSSGNHIVEKRV | 3.18
37 | YPPLEGHVRQGVFSSDNHIVEKRV | 4.2
38 | YPPLEGHVRQGVFSSTNHIVEKRV | 2.77
39 | YPPLEGHVRQGVFSSYNHIVEKRV | 2.22
40 | YPPLEGHVRQGVFSSWNHIVEKRV | 2.1
41 | YPPLEGHVRQGVFSSMNHIVEKRV | 2.39
42 | YPPLEGHVRQGVFSSVNHIVEKRV | 3.1
43 | YPPLEGHVRQGVFSSPNHIVEKRV | 2.93
44 | YPPLEGHVRQGVFSSHNHIVEKRV | 2.94
45 | YPPLEGHVRQGVFSSQNHIVEKRV | 3.01
46 | YPPLEGHVRQGVFSSSNHIVEKRV | 2.49
47 | YPPLEGHVRQGVFSSINHIVEKRV | 2.31
48 | YPPLEGHVRQGVFSSANHIVEKRV | 3.33

Row | Variant | protein stability index
49 | YPPLEGHVRQGVFSSCNHIVEKRV | 2.24
50 | YPPLEGHVRQGVFSSRNHIVEKRV | 4.03
51 | YPPLEGHVRQGVFSSKNHIVEKRV | 3.35
52 | YPPLEGHVRQGVFSSFNHIVEKRV | 2.14
53 | YPPLEGHVRQGVFSSENHIVEKRV | 3.65
54 | YPPLEGHVRQGVFSSNNHIVEKRV | 3.3
55 | YPPLEGHVRSGVFSSLNHIVEKRV | 3.33
56 | YPPLEGHVRWGVFSSLNHIVEKRV | 1.49
57 | YPPLEGHVRPGVFSSLNHIVEKRV | 2.3
58 | YPPLEGHVRHGVFSSLNHIVEKRV | 2.69
59 | YPPLEGHVRRGVFSSLNHIVEKRV | 2.26
60 | YPPLEGHVRNGVFSSLNHIVEKRV | 1.96
61 | YPPLEGHVRMGVFSSLNHIVEKRV | 1.98
62 | YPPLEGHVRLGVFSSLNHIVEKRV | 1.72
63 | YPPLEGHVRTGVFSSLNHIVEKRV | 1.83
64 | YPPLEGHVRIGVFSSLNHIVEKRV | 1.62
65 | YPPLEGHVRYGVFSSLNHIVEKRV | 1.99
66 | YPPLEGHVRGGVFSSLNHIVEKRV | 2.82
67 | YPPLEGHVRVGVFSSLNHIVEKRV | 2.28
68 | YPPLEGHVRQGVFSVLNHIVEKRV | 2.92
69 | YPPLEGHVRQGVFSQLNHIVEKRV | 2.28
70 | YPPLEGHVRQGVFSDLNHIVEKRV | 2.95
71 | YPPLEGHVRQGVFSILNHIVEKRV | 1.64
72 | YPPLEGHVRQGVFSFLNHIVEKRV | 2.32

Row | Variant | protein stability index
73 | YPPLEGHVRQGVFSYLNHIVEKRV | 1.33
74 | YPPLEGHVRQGVFSGLNHIVEKRV | 2.58
75 | YPPLEGHVRQGVFSNLNHIVEKRV | 2.4
76 | YPPLEGHVRQGVFSMLNHIVEKRV | 2.43
77 | YPPLEGHVRQGVFSALNHIVEKRV | 2.23
78 | YPPLEGHVRQGVFSCLNHIVEKRV | 1.69
79 | YPPLEGHVRQGVFSELNHIVEKRV | 2.17
80 | YPPLEGHVRQGVFSLLNHIVEKRV | 1.86
81 | YPPLEGHVRQGVFSRLNHIVEKRV | 2.12
82 | YPPLEGHVRQGVFSPLNHIVEKRV | 1.54
83 | YPPLEGHVRQGVFSKLNHIVEKRV | 2.31
84 | YPPLEGHVRQGVFSSLNHMVEKRV | 3.33
85 | YPPLEGHVRQGVFSSLNHHVEKRV | 2.65
86 | YPPLEGHVRQGVFSSLNHQVEKRV | 2.52
87 | YPPLEGHVRQGVFSSLNHYVEKRV | 2.07
88 | YPPLEGHVRQGVFSSLNHNVEKRV | 3.23
89 | YPPLEGHVRQGVFSSLNHAVEKRV | 3.17
90 | YPPLEGHVRQGVFSSLNHSVEKRV | 2.53
91 | YPPLEGHVRQGVFSSLNHDVEKRV | 3.11
92 | YPPLEGHVRQGVFSSLNHLVEKRV | 1.83
93 | YPPLEGHVRQGVFSSLNHTVEKRV | 2.88
94 | YPPLEGHVRQGVFSSLNHGVEKRV | 2.57
95 | YPPLEGHVRQGVFSSLNHKVEKRV | 2.37
96 | YPPLEGHVRQGVFSSLNHFVEKRV | 2.31

Row | Variant | protein stability index
97 | YPPLEGHVRQGVFSSLNHWVEKRV | 3.41
98 | YPPLEGHVRQGVFSSLNHPVEKRV | 2.47
99 | YPPLEGHVRQGVFSSLNHVVEKRV | 2.52
100 | YPPLEGHVRQGVFSSLNHRVEKRV | 3.04
101 | YPPLEGHVRQFVFSSLNHIVEKRV | 1.8
102 | YPPLEGHVRQNVFSSLNHIVEKRV | 2.29
103 | YPPLEGHVRQLVFSSLNHIVEKRV | 1.85
104 | YPPLEGHVRQTVFSSLNHIVEKRV | 2.27
105 | YPPLEGHVRQCVFSSLNHIVEKRV | 1.48
106 | YPPLEGHVRQQVFSSLNHIVEKRV | 2.35
107 | YPPLEGHVRQRVFSSLNHIVEKRV | 2.18
108 | YPPLEGHVRQVVFSSLNHIVEKRV | 2.33
109 | YPPLEGHVRQEVFSSLNHIVEKRV | 2.88
110 | YPPLEGHVRQMVFSSLNHIVEKRV | 1.79
111 | YPPLEGHVRQWVFSSLNHIVEKRV | 1.34
112 | YPPLEGHVRQPVFSSLNHIVEKRV | 3.3
113 | YPPLEGHVRQAVFSSLNHIVEKRV | 2.31
114 | YPPLEGHVRQDVFSSLNHIVEKRV | 2.59
115 | YPPLEGHVRQYVFSSLNHIVEKRV | 1.85
116 | YPPLEGHVRQHVFSSLNHIVEKRV | 2.29
117 | YPPLEGHVRQIVFSSLNHIVEKRV | 1.87
118 | YPPLEGHVRQSVFSSLNHIVEKRV | 2.54
119 | YPPLEGHVRQKVFSSLNHIVEKRV | 2.93
120 | YPPLEGHVRQGVFSSLNHIPEKRV | 2.64

Row | Variant | protein stability index
121 | YPPLEGHVRQGVFSSLNHINEKRV | 2.34
122 | YPPLEGHVRQGVFSSLNHIFEKRV | 2.78
123 | YPPLEGHVRQGVFSSLNHIMEKRV | 2.7
124 | YPPLEGHVRQGVFSSLNHIIEKRV | 2.04
125 | YPPLEGHVRQGVFSSLNHIDEKRV | 3.13
126 | YPPLEGHVRQGVFSSLNHICEKRV | 2
127 | YPPLEGHVRQGVFSSLNHIGEKRV | 1.76
128 | YPPLEGHVRQGVFSSLNHIKEKRV | 2.43
129 | YPPLEGHVRQGVFSSLNHILEKRV | 2.2
130 | YPPLEGHVRQGVFSSLNHIAEKRV | 2.7
131 | YPPLEGHVRQGVFSSLNHIHEKRV | 2.36
132 | YPPLEGHVRQGVFSSLNHIEEKRV | 3.08
133 | YPPLEGHVRQGVFSSLNHIQEKRV | 2.72
134 | YPPLEGHVRQGVFSSLNQIVEKRV | 2.76
135 | YPPLEGHVRQGVFSSLNRIVEKRV | 3.42
136 | YPPLEGHVRQGVFSSLNLIVEKRV | 1.77
137 | YPPLEGHVRQGVFSSLNKIVEKRV | 2.86
138 | YPPLEGHVRQGVFSSLNEIVEKRV | 2.91
139 | YPPLEGHVRQGVFSSLNVIVEKRV | 1.36
140 | YPPLEGHVRQGVFSSLNAIVEKRV | 1.86
141 | YPPLEGHVRQGVFSSLNMIVEKRV | 3.03
142 | YPPLEGHVRQGVFSSLNIIVEKRV | 1.99
143 | YPPLEGHVRQGVFSSLNNIVEKRV | 2.78
144 | YPPLEGHVRQGVFSSLNDIVEKRV | 3.39

Row | Variant | protein stability index
145 | YPPLEGHVRQGVFSSLNTIVEKRV | 2.16
146 | YPPLEGHVRQGVFSSLNCIVEKRV | 2.01
147 | YPPLEGHVRQGVFSSLNSIVEKRV | 2.65
148 | YPPLEGHVRQGVFSSLNPIVEKRV | 3.04
149 | YPPLEGHVRQGVFSSLNYIVEKRV | 1.83
150 | YPPLEGHVRQGVFSSLNFIVEKRV | 1.97
151 | YPPLEGHVRQGVFSSLNWIVEKRV | 1.39
152 | YPPLEGHVRQGKFSSLNHIVEKRV | 3.63
153 | YPPLEGHVRQGCFSSLNHIVEKRV | 2.21
154 | YPPLEGHVRQGTFSSLNHIVEKRV | 3.27
155 | YPPLEGHVRQGFFSSLNHIVEKRV | 2.69
156 | YPPLEGHVRQGNFSSLNHIVEKRV | 3.15
157 | YPPLEGHVRQGSFSSLNHIVEKRV | 2.11
158 | YPPLEGHVRQGYFSSLNHIVEKRV | 2.54
159 | YPPLEGHVRQGRFSSLNHIVEKRV | 3.5
160 | YPPLEGHVRQGGFSSLNHIVEKRV | 2.54
161 | YPPLEGHVRQGLFSSLNHIVEKRV | 3.31
162 | YPPLEGHVRQGDFSSLNHIVEKRV | 3.44
163 | YPPLEGHVRQGMFSSLNHIVEKRV | 2.36
164 | YPPLEGHVRQGIFSSLNHIVEKRV | 2.37
165 | YPPLEGHVRQGAFSSLNHIVEKRV | 2.58
166 | YPPLEGHVRQGHFSSLNHIVEKRV | 2.53
167 | YPPLEGHVRQGEFSSLNHIVEKRV | 3.46
168 | YPPLEGHVRQGQFSSLNHIVEKRV | 3.95

Row | Variant | protein stability index
169 | YPPLEGHVRQGPFSSLNHIVEKRV | 3.19
170 | YPPLEGHVRQGVFSSLHHIVEKRV | 2.21
171 | YPPLEGHVRQGVFSSLTHIVEKRV | 2.04
172 | YPPLEGHVRQGVFSSLEHIVEKRV | 2.63
173 | YPPLEGHVRQGVFSSLIHIVEKRV | 1.86
174 | YPPLEGHVRQGVFSSLKHIVEKRV | 2.28
175 | YPPLEGHVRQGVFSSLSHIVEKRV | 2.29
176 | YPPLEGHVRQGVFSSLQHIVEKRV | 2.34
177 | YPPLEGHVRQGVFSSLFHIVEKRV | 1.78
178 | YPPLEGHVRQGVFSSLAHIVEKRV | 2.48
179 | YPPLEGHVRQGVFSSLPHIVEKRV | 2.4
180 | YPPLEGHVRQGVFSSLGHIVEKRV | 2.46
181 | YPPLEGHVRQGVFSSLCHIVEKRV | 1.86
182 | YPPLEGHVRQGVFSSLWHIVEKRV | 2.26
183 | YPPLEGHVRQGVFSSLDHIVEKRV | 3.07
184 | YPPLEGHVRQGVFSSLRHIVEKRV | 2.44
185 | YPPLEGHVRQGVFSSLVHIVEKRV | 1.99
186 | YPPLEGHVRQGVFSSLYHIVEKRV | 1.71
187 | YPPLEGHVRQGVFSSLMHIVEKRV | 1.64
188 | YPPLEGHVRQGVFSSLLHIVEKRV | 2.46
